The values that follow come from patent US20230235058A1.

Experiment [1] addresses full length human BTLA expressed on cells (human) (UniProt Q7Z6A9). Briefly: cell-based or functional assay.
In experiment [2] the target is human BTLA extracellular region / murine CD28 construct with Y39R, on HEK-293T cells (human; mouse) (UniProt P31041). Briefly: flow cytometry, GFP-positive transfected HEK-293T cells, fluorochrome-conjugated antibody at 10 ug/ml, Geo-mean relative to wild type. (In general: Flow cytometry measures light scatter and fluorescence of single cells or particles in a stream.)
Sequence of human BTLA extracellular region / murine CD28 construct with Y39R, on HEK-293T cells (human; mouse) (P31041 other isoform, or with tags, fused parts or gaps Y39R Y39R): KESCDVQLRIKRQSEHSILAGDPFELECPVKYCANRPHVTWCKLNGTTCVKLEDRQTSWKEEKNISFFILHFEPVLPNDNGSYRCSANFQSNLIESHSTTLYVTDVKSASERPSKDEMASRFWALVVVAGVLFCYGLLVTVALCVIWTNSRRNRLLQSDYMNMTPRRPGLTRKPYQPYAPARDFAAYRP

Experiment [3] concerns the target human BTLA extracellular region / murine CD28 construct with K41E, on HEK-293T cells (human; mouse) (UniProt P31041). The experiment is described as above.
The target of another experiment is L48R (Mus musculus). The description is as above.

Sequence of human BTLA extracellular region / murine CD28 construct with K41E, on HEK-293T cells (human; mouse) (P31041 other isoform, or with tags, fused parts or gaps K41E K41E): as the sequence (P31041 other isoform, or with tags, fused parts or gaps Y39R Y39R) above, with R9Y, K11E counted along it

B1: 22B3 hIgG4PAA (antibody, from another filing, V domains shown)
VH: QVQLVQSGAEVKKPGASVKVSCKASGFSLSSYGVSWVRQAPGQGLEWMGAISYDGITYYASWAKSRVTMTRDTSTSTVYMELSSLRSEDTAVYYCARGDYYDDYVYVYALDIWGQGTLVTVSS
VL: EIVLTQSPGTLSLSPGERATLSCQASQSISTALAWYQQKPGQAPRLLIYAASTLASGIPDRFSGSGSGTDFTLTISRLEPEDFAVYYCQQGYSSSNLDNVFGGGTKVEIKR
In experiment [1], B1 registered an inhibition of NFkB signal, IC50 of 3.8 nM and a maximal inhibition of NFkB signal of 18%.

B2: 2.8.6 (antibody, V domains shown)
VH: QVQLKESGPGLVAPSQSLSITCTVSGFSLTTYGVHWVRQSPGKGLEWLGVMWPGGRTSYNPAPMSRLSISKDNSKSQVFLKMNSLQTDDTAMYYCVRGDYEYDYYAMDYWGQGTSVTVSS
VL: QIVLSQSPAILSASPGEKVTMTCRASSSVSYMHWYQQKPGSSPKPWIYATSNLASGVPARFSGSGSGTSYSLTISRMEAEDAATYYCHQWSSNPYTFGGGTKLEIK
As for B2, the binding as % of binding to wild-type BTLA came out at 60% in experiment [2], 91.4% in experiment [3] and 102% in the experiment with L48R (Mus musculus).

B3: 11.5.1 (antibody, V domains shown)
VH: EVQLQESGPSLVKPSQTLSLTCSVTGDSITSAYWNWIRKFPGNKLEYMGYISYSGSTYFNPSLKSRISITRNTSKNQYYLQLNSVTTEDTATYYCARSHYYGYYFDYWGHGTTLTVSS
VL: DIVLTQSPASLAVSLGQRATISCRASETIDSYGDSLMHWYQQKAGQPPKLLIYRASNLESGIPARFSGSGSRTDFTLTINPVEADDVATYYCQQTDEDPYTFGGGTKLEIK
For the molecule B3, the binding as % of binding to wild-type BTLA amounted to 0.76% in experiment [2], 1.8% in experiment [3] and 145% with L48R (Mus musculus).
